Several values for one entry are separate records, joined by “and”; a condition that tells them apart may be missing. Equal values may be shown once.
Tests used:
RPRTSS = system: T1, RPRTSS
T1 sequence: RPRTSS

RPRGGSF = system: T2, RPRGGSF
T2 sequence: RPRGGSF

KKRNRTLSVA = system: T3, KKRNRTLSVA
T3 sequence: KKRNRTLSVA

RPRVSSF = system: T4, RPRVSSF
T4 sequence: RPRVSSF

RPRTSSK = system: T5, RPRTSSK
T5 sequence: RPRTSSK

KPRTSSF = system: T6, KPRTSSF
T6 sequence: KPRTSSF

Crosstide GRPRTSSFAEG = system: T7, Crosstide GRPRTSSFAEG
T7 sequence: GRPRTSSFAEG

RPRGSSF = system: T8, RPRGSSF
T8 sequence: RPRGSSF

KKRNRTLTV = system: T9, KKRNRTLTV
T9 sequence: KKRNRTLTV

RPRNSSF = system: T10, RPRNSSF
T10 sequence: RPRNSSF

RPRTSSV = system: T11, RPRTSSV
T11 sequence: RPRTSSV

RPKTSSF = system: T12, RPKTSSF
T12 sequence: RPKTSSF

RPRASSF = system: T13, RPRASSF
T13 sequence: RPRASSF

RPRTVSF = system: T14, RPRTVSF
T14 sequence: RPRTVSF

RPRAASF = system: T15, RPRAASF
T15 sequence: RPRAASF

RPRTGSF = system: T16, RPRTGSF
T16 sequence: RPRTGSF

RPRAATF = system: T17, RPRAATF
T17 sequence: RPRAATF

RPRGASF = system: T18, RPRGASF
T18 sequence: RPRGASF

KKKNRTLSVA = system: T19, KKKNRTLSVA
T19 sequence: KKKNRTLSVA

[1] = system: myelin basic protein (MBP)
RPRTSSL = system: T20, RPRTSSL
T20 sequence: RPRTSSL

RPRTNSF = system: T21, RPRTNSF
T21 sequence: RPRTNSF

RPRTSSA = system: T22, RPRTSSA
T22 sequence: RPRTSSA

RPRTSTF = system: T23, RPRTSTF
T23 sequence: RPRTSTF

RPRAGSF = system: T24, RPRAGSF
T24 sequence: RPRAGSF

RPRTSSFA = system: T25, RPRTSSFA
T25 sequence: RPRTSSFA

KKRNKTLSVA = system: T26, KKRNKTLSVA
T26 sequence: KKRNKTLSVA

RPRTASF = system: T27, RPRTASF
T27 sequence: RPRTASF

GRPRTSSF = system: T28, GRPRTSSF
T28 sequence: GRPRTSSF

RPRTSSE = system: T29, RPRTSSE
T29 sequence: RPRTSSE

RPRTSSF = system: T30, RPRTSSF
T30 sequence: RPRTSSF

GRARTSSFA = system: T31, GRARTSSFA
T31 sequence: GRARTSSFA

HA-RAC-PKα immunoprecipitated from IGF-1 stimulated 293 cells
Km (RPRTSS): > 500 µM
V (0.1 mM): relative rate of phosphorylation at 0.1 mM peptide (relative to peptide 1) (RPRTSS): 2
Km (RPRGGSF): 105 µM
V (0.1 mM): relative rate of phosphorylation at 0.1 mM peptide (relative to peptide 1) (RPRGGSF): 55
Vmax (RPRGGSF): 345 U/mg
Km (KKRNRTLSVA): 80 µM
Vmax (KKRNRTLSVA): 300 U/mg
Km (RPRVSSF): 25 µM
V (0.1 mM): relative rate of phosphorylation at 0.1 mM peptide (relative to peptide 1) (RPRVSSF): 77
Vmax (RPRVSSF): 273 U/mg
Km (RPRTSSK): 80 µM
V (0.1 mM): relative rate of phosphorylation at 0.1 mM peptide (relative to peptide 1) (RPRTSSK): 67
Vmax (RPRTSSK): 308 U/mg
Km (KPRTSSF): > 500 µM
V (0.1 mM): relative rate of phosphorylation at 0.1 mM peptide (relative to peptide 1) (KPRTSSF): 4
Km (Crosstide GRPRTSSFAEG): 4 µM
V (0.1 mM): relative rate of phosphorylation at 0.1 mM peptide (relative to peptide 1) (Crosstide GRPRTSSFAEG): 100
Vmax (Crosstide GRPRTSSFAEG): 250 U/mg
Km (RPRGSSF): 60 µM
V (0.1 mM): relative rate of phosphorylation at 0.1 mM peptide (relative to peptide 1) (RPRGSSF): 37
Vmax (RPRGSSF): 163 U/mg
Km (KKRNRTLTV): 388 µM
Vmax (KKRNRTLTV): 330 U/mg
Km (RPRNSSF): > 500 µM
V (0.1 mM): relative rate of phosphorylation at 0.1 mM peptide (relative to peptide 1) (RPRNSSF): 21
Km (RPRTSSV): 21 µM
V (0.1 mM): relative rate of phosphorylation at 0.1 mM peptide (relative to peptide 1) (RPRTSSV): 102
Vmax (RPRTSSV): 300 U/mg
Km (RPKTSSF): > 500 µM
V (0.1 mM): relative rate of phosphorylation at 0.1 mM peptide (relative to peptide 1) (RPKTSSF): 2
Km (RPRASSF): 12 µM
V (0.1 mM): relative rate of phosphorylation at 0.1 mM peptide (relative to peptide 1) (RPRASSF): 89
Vmax (RPRASSF): 230 U/mg
Km (RPRTVSF): 30 µM
V (0.1 mM): relative rate of phosphorylation at 0.1 mM peptide (relative to peptide 1) (RPRTVSF): 89
Vmax (RPRTVSF): 365 U/mg
Km (RPRAASF): 25 µM
V (0.1 mM): relative rate of phosphorylation at 0.1 mM peptide (relative to peptide 1) (RPRAASF): 77
Vmax (RPRAASF): 215 U/mg
Km (RPRTGSF): 25 µM
V (0.1 mM): relative rate of phosphorylation at 0.1 mM peptide (relative to peptide 1) (RPRTGSF): 77
Vmax (RPRTGSF): 233 U/mg
Km (RPRAATF): 25 µM
Vmax (RPRAATF): 230 U/mg
Km (RPRGASF): 105 µM
V (0.1 mM): relative rate of phosphorylation at 0.1 mM peptide (relative to peptide 1) (RPRGASF): 37
Vmax (RPRGASF): 160 U/mg
Km (KKKNRTLSVA): 185 µM
Vmax (KKKNRTLSVA): 270 U/mg
Km [1]: MBP with a Km of 5 µM and a Vmax of 25 U/mg
Vmax [1]: MBP with a Km of 5 µM and a Vmax of 25 U/mg
Km (RPRTSSL): 8 µM
V (0.1 mM): relative rate of phosphorylation at 0.1 mM peptide (relative to peptide 1) (RPRTSSL): 104
Vmax (RPRTSSL): 278 U/mg
Km (RPRTNSF): 30 µM
V (0.1 mM): relative rate of phosphorylation at 0.1 mM peptide (relative to peptide 1) (RPRTNSF): 81
Vmax (RPRTNSF): 300 U/mg
Km (RPRTSSA): 250 µM
V (0.1 mM): relative rate of phosphorylation at 0.1 mM peptide (relative to peptide 1) (RPRTSSA): 30
Vmax (RPRTSSA): 265 U/mg
Km (histone H2B): histone H2B with a Km of 5 µM and a Vmax of 68 U/mg
Vmax (histone H2B): histone H2B with a Km of 5 µM and a Vmax of 68 U/mg
Km (RPRTSTF): 30 µM
V (0.1 mM): relative rate of phosphorylation at 0.1 mM peptide (relative to peptide 1) (RPRTSTF): 78
Vmax (RPRTSTF): 240 U/mg and 243 U/mg
Km (RPRAGSF): 49 µM
V (0.1 mM): relative rate of phosphorylation at 0.1 mM peptide (relative to peptide 1) (RPRAGSF): 70
Vmax (RPRAGSF): 114 U/mg
Km (RPRTSSFA): 8 µM
V (0.1 mM): relative rate of phosphorylation at 0.1 mM peptide (relative to peptide 1) (RPRTSSFA): 109
Vmax (RPRTSSFA): 305 U/mg
Km (KKRNKTLSVA): > 500 µM
Km (RPRTASF): 20 µM
V (0.1 mM): relative rate of phosphorylation at 0.1 mM peptide (relative to peptide 1) (RPRTASF): 83
Vmax (RPRTASF): 213 U/mg
Km (GRPRTSSF): 8 µM
V (0.1 mM): relative rate of phosphorylation at 0.1 mM peptide (relative to peptide 1) (GRPRTSSF): 129
Vmax (GRPRTSSF): 385 U/mg
Km (RPRTSSE): > 500 µM
V (0.1 mM): relative rate of phosphorylation at 0.1 mM peptide (relative to peptide 1) (RPRTSSE): 9
Km (RPRTSSF): 5 µM
V (0.1 mM): relative rate of phosphorylation at 0.1 mM peptide (relative to peptide 1) (RPRTSSF): 105
Vmax (RPRTSSF): 260 U/mg
Km (GRARTSSFA): Km of 10 µM and Vmax of 230 U/mg
Vmax (GRARTSSFA): Km of 10 µM and Vmax of 230 U/mg

MAPKAP kinase-1 purified from rabbit skeletal muscle
Km (Crosstide GRPRTSSFAEG): 2 µM
Vmax (Crosstide GRPRTSSFAEG): 790 U/mg
Km (RPRAASF): 20 µM
Vmax (RPRAASF): 1020 U/mg
Km (RPRAATF): > 500 µM
Km (RPRTSTF): > 500 µM
Vmax (RPRTSTF): > 500 U/mg
Km (RPRTSSF): 12 µM
Vmax (RPRTSSF): 840 U/mg
